From article PMC4514675, “Novel Apo E-Derived ABCA1 Agonist Peptide (CS-6253) Promotes Reverse Cholesterol Transport and Induces Formation of preβ-1 HDL In Vitro” (PLoS ONE, 2015) come the findings set out here.

A word on the Km: it is the concentration of substrate that gives half-maximal velocity.

One data set relates to BHK-mock cells. In words: Cholesterol efflux from control cells (unstimulated BHK-ABCA1, BHK-mock), media. It counts as cell-based, hamster. From the text:
BHK cells stably transfected with an ABCA1 or ABCG1 expression vector that is mifepristone inducible and cells transfected with the same vector lacking the ABCA1 cDNA insert (mutant or mock-transfected) were generously provided by the late Dr. John F. Oram from the Department of Medicine, University of Washington, and were characterized and cultured as previously described. […] Mouse-derived peritoneal macrophages J774 were purchased from American Tissue Culture Collection (ATCC TIB-67, Cederlane, Burlington, Canada). For induction of ABCA1, BHK cells were incubated for 18–20 h with 10 nM mifepristone. […]
Fig 2 Effect of CS-6253 treatment on cholesterol efflux. […] Cholesterol efflux from either ABCA1 cells or control cells to apo A-I (closed circles), and CS-6253 (closed triangles) was determined at the indicated time points. […] ABCA1 was detected from THP-1 foam cells lysis at 4°C with lysis buffer containing 0.5% n-dodecylmaltoside in the presence of a protease inhibitor mixture followed by low speed centrifugation to remove cell debris. Protein concentration was determined by standard assay (Bio-Rad). […] After electrophoresis, ABCA1 was detected by an anti-ABCA1 antibody. […] 3[H]-FC and 3[H]-CE were separated by TLC and located by exposure to iodine vapor, and were scraped off into liquid scintillating vials and assayed for radioactivity. […]

The target in another data set is T1, human ABCG1 (Homo sapiens, UniProt P45844).
T1 construct: expressed in transfected cells; host or cells: BHK cells, stably transfected, induced with 10 nmol/l mifepristone
Put plainly: ABCG1-mediated cholesterol efflux from BHK-ABCG1 cells. The format is cell-based. Here is the method:
Supplementary file pone.0131997.s009.tif: S8 Fig In-vitro time-dependent ABCG1-mediated cholesterol efflux activity to nHDL-CS-6253 particles generated by BHK cells expressing ABCA1. Unlabeled BHK cells expressing ABCA1 were treated with 0.96 μM lipid free apo A-I or CS-6253 for 18 h as described in experimental procedures in the online-only Supplementary appendix, S1 Appendix. Then the medium was collected and added to 3[H]cholesterol-labeled ABCG1 expressing cells in a time-dependent fashion (0–6h), and assayed for cholesterol efflux (only 6h time point is shown). (TIF) Click here for additional data file.
Supplementary file pone.0131997.s010.tif: S9 Fig In-vitro ABCG1-mediated cholesterol efflux activity to lipid free CS-6253 and nHDL-CS-6253 particles generated by BHK cells expressing ABCA1. Unlabeled ABCA1 expressing cells were treated with increasing concentrations of apo A-I or CS-6253 for 18 h. The medium from unlabeled ABCA1 cells treated as described in experimental procedures, centrifuged to remove cellular debris, added to ^3[H]cholesterol-BHK ABCG1 expressing cells for 6 h, and assayed for efflux as described in the online-only Supplementary appendix, S1 Appendix. Lipid free peptide and apo A-I are also tested against ABCG1 expressing cells for 6h cholesterol efflux. (We selected 1 μM nHDL mimetic or nHDL-apo A-I or lipid free peptide and apo A-I for the figure). […] Efflux of ^3[H]cholesterol is shown as means ± SD of triplicate experiments. (TIF) Click here for additional data file.
All cell culture incubations were performed at 37 °C in a humidified 5% CO2. Cells (J774, or BHK overexpressing human ABCG1) were labeled with 2 μCi/ml ^3H-free cholesterol (Perkin Elmer, Norwalk, Connecticut) for 24 h. Simultaneously J774 cells were incubated with 2 μg/ml ACAT inhibitor (Sandoz, Sigma, Oakville, Canada). Afterward, J774 and BHK-ABCG1 were stimulated with 0.5 mmol/l (cpt-cAMP) (2) or 10 nmol/l mifepristone for 18-20 h, respectively (1). Cells were incubated with various doses of acceptor in media for 6 h for J774 macrophages and BHK-ABCG1 cells. Media were collected, centrifuged at 3.000 g for 5min to remove cell debris, and counted for radioactivity. Cells were lysed in 0.5 ml of (0.1N) NaOH overnight with constant shaking. Further, 0.2 ml cells lysates were mixed with scintillation liquid and counted for radioactivity. Efflux from stimulated cells without acceptor was subtracted from total efflux to determine net efflux. Cholesterol efflux was calculated according to the following formula as the percentage of ^3H-cpm medium/(^3H-cpm medium + ^3H-cpm cells) x 100%. Efflux efficiency (Km) was calculated using the Michaelis-Menten equation (Graph-Pad Prism6 software) respectively (S1, S8 and S9 Figs.)

The mark [1] stands for this setting: BHK-ABCG1, 6 h, mean ± SD, triplicate.

For the substance apolipoprotein A-I [apo A-I], in the data set on BHK-mock cells (BHK mock and unstimulated BHK-ABCA1 cells), the “maximum cholesterol efflux by diffusion” value was 0.75%. Further, the “cholesterol efflux from control cells” value in the data set with BHK-mock cells (unstimulated BHK-ABCA1 and BHK-mock, CS-6253 30 μg/ml, apo A-I 10 μg/ml) is “no significant cholesterol efflux”. Moreover, in the data set with human ABCG1 (setting [1]), the Km is 0.06 ± 0.01 µM and the “Km, ABCG1-mediated cholesterol efflux” value came out at 1.7 ± 0.50 µg/mL. Also, in the data set with human ABCG1 (BHK-ABCG1, mean ± SD, triplicate), the “Vmax, ABCG1-mediated cholesterol efflux” value was found to be 0.96 ± 0.01 % efflux/6h. Moreover, the “maximum net ABCG1 cholesterol efflux above base line” value with human ABCG1 (lipid free, BHK-ABCG1, 6 h) came out at 1%.
